Measurements published in patent US20210230294A1 (Incyte, published 2021).

Assays:
[1] = molecular target: T1, recombinant human CD73 (SEQ ID NO:70) (human, UniProt P21589 27-549); experiment: SPR (Biacore 8K), antibody captured on anti-human Fc, CD73 as analyte, open conformation
T1 construct: Soluble recombinant protein in normal SPR running buffer (open conformation), the soluble enzyme assay and HDX-MS; SPR stock bought from BPS Bioscience; also called rhuCD73; CD73 in the open conformation
T1 sequence: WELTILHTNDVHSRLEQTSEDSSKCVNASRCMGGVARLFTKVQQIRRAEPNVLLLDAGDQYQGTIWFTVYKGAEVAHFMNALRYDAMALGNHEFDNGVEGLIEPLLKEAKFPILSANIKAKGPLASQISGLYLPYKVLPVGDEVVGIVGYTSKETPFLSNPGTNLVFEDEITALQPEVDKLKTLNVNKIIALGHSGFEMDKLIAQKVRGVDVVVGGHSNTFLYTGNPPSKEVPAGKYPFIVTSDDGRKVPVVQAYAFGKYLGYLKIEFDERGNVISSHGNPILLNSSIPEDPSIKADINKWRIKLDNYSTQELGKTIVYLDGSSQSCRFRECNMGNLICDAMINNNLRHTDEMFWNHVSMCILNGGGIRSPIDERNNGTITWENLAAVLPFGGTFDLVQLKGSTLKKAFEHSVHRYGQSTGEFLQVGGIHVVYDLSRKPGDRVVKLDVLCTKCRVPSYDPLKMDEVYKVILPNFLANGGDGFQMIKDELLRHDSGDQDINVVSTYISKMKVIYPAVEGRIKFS
Procedure: (§1) The SPR running buffer (10 mM HEPES, 150 mM NaCl, 3 mM EDTA and 0.05% v/v Surfactant P20, pH 7.4) was prepared from 10×HBS-EP Buffer (GE Healthcare). Anti-human Fc antibodies (GE Healthcare) were immobilized via amine coupling on all sixteen flow cells of an S series sensor chip CM5 (GE Healthcare). The immobilization levels were ˜9000 RU for all flow cells. […] The non-cleavable ADP analogue APCP (adenosine-5′-(α,β-methylene) diphosphate) with the presence of Zn²⁺ can be used to shift the CD73 conformational equilibrium from open towards closed. Therefore, recombinant CD73 was incubated with SPR running buffer in the presence of 100 μM APCP and 10 μM ZnCl₂ (closed SPR running buffer) to study the binding of anti-CD73 antibody to the CD73 in the closed conformation. To achieve this, the ABA injection feature in Biacore 8K was used. For open conformation, the ABA injection sequence started with 60 seconds injection of running buffer. Then, CD73 3-fold serial dilution concentration series prepared from CD73 stock (BPS Bioscience) and running buffer were injected for 180 seconds immediately followed by running buffer for 240 seconds. For closed conformation, the normal SPR running buffer was replaced by closed SPR running buffer. Surface was regenerated with 30 seconds injection of 3 M MgCl₂.

[2] = molecular target: T2, cynomolgus CD73 (SEQ ID NO:72) (cynomolgus, UniProt P21589 27-549 (human entry)); experiment: as above
T2 construct: Open conformation (normal SPR running buffer)
T2 chain: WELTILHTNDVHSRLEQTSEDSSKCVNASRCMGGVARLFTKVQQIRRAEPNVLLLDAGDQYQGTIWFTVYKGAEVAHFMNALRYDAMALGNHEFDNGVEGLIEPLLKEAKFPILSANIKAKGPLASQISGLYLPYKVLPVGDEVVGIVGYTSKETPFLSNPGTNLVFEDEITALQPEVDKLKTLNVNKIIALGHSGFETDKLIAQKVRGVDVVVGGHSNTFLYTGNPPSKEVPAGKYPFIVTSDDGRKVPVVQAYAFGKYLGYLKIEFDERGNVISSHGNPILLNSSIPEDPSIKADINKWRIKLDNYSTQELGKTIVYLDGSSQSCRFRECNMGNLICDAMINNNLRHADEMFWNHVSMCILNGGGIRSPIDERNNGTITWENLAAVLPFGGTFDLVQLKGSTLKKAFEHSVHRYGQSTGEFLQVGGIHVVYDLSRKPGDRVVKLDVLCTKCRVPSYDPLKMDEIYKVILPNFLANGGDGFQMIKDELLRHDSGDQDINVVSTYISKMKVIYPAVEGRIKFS
Procedure: as §1

[3] = molecular target: T3, mouse CD73 (SEQ ID NO:71) (mouse, UniProt Q61503 29-551); experiment: as above
T3 construct: Open conformation (normal SPR running buffer); also called Murine; murine CD73
T3 sequence: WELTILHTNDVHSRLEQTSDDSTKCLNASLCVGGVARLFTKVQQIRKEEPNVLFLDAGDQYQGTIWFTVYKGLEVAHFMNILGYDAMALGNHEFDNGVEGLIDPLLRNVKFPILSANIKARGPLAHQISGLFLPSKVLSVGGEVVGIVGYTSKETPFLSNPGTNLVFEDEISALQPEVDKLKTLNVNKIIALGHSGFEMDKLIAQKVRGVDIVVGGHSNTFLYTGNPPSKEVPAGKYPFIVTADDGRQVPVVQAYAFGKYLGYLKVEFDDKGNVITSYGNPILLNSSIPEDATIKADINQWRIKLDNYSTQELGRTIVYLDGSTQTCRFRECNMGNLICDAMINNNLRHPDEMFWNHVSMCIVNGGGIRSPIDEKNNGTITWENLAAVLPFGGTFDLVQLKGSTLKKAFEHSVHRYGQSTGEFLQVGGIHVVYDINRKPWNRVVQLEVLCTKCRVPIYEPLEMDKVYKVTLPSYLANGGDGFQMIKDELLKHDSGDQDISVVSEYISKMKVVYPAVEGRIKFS
Procedure: as §1

[4] = molecular target: T4, recombinant human CD73 in the closed conformation (human, UniProt P21589 27-549); experiment: SPR (Biacore 8K), antibody captured on anti-human Fc, CD73 as analyte, buffer with APCP and ZnCl2 (closed conformation)
T4 construct: Kept apart from m1 because results differ between the two states; also called human CD73, Closed
T4 sequence: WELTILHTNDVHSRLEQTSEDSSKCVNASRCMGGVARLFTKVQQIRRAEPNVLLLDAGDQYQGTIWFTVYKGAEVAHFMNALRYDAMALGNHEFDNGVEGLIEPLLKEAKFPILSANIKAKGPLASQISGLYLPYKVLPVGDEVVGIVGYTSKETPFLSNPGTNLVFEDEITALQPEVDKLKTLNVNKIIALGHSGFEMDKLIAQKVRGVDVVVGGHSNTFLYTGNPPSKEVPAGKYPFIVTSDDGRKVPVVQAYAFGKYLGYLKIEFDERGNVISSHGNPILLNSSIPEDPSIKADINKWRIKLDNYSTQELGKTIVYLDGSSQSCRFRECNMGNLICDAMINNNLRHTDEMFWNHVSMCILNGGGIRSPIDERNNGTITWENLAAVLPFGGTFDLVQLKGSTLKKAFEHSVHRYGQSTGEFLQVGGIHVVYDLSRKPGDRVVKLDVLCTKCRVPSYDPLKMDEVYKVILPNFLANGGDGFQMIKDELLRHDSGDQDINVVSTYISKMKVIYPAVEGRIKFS
Procedure: as §1

[5] = molecular target: T5, cynomolgus CD73 in the closed conformation (cynomolgus, UniProt P21589 27-549 (human entry)); experiment: as above
T5 construct: Same protein as m2 in buffer with 100 uM APCP and 10 uM ZnCl2 (closed conformation); also called Cynomolgus, Closed
T5 chain: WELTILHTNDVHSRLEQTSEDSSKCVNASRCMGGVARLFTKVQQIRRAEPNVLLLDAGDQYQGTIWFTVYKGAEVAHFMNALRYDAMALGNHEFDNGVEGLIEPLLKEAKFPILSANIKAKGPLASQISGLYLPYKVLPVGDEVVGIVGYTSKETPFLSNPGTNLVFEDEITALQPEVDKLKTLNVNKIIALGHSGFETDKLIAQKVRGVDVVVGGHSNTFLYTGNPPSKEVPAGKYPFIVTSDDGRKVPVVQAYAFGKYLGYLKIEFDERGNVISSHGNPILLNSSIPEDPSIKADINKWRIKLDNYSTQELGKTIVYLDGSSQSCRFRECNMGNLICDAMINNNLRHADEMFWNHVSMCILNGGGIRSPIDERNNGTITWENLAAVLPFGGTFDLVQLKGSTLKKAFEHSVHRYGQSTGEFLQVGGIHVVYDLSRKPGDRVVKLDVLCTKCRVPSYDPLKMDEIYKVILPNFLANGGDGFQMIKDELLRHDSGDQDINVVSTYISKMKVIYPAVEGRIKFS
Procedure: as §1

[6] = molecular target: T6, mouse CD73 in the closed conformation (mouse, UniProt Q61503 29-551); experiment: as above
T6 construct: Same protein as m3 in buffer with 100 uM APCP and 10 uM ZnCl2 (closed conformation); also called Murine, Closed
T6 sequence: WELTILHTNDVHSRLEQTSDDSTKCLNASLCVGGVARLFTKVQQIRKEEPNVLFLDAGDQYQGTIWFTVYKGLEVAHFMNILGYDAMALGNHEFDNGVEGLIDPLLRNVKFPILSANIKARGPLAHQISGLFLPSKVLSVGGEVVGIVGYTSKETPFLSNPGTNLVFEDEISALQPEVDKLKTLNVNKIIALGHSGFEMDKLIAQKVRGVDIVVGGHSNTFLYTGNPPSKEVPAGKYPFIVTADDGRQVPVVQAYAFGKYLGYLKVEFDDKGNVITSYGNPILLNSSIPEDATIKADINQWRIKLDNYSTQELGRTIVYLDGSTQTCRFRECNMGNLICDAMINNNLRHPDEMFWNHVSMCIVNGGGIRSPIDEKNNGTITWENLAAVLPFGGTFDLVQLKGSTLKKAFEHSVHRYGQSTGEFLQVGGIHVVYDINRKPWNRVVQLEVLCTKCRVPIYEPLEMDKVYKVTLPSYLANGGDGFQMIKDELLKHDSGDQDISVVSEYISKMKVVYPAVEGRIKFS
Procedure: as §1

B1: CL25 (chimeric antibody, murine VH/VL with human IgG1/kappa constant regions) (antibody, V domains shown)
VH: QVQLQQSGAELARPGASVKLSCRASGYTFTSYGLSWVKQRTGQGLEWIGEIYPGSGNTYYNEKFKGKATLTADKSSSTAYMELRSLTSEDSAVYFCARYDYLGSSYGFDYWGQGTTLTVSS
VL: DIVMTQSHKFMSTSVGDRVSITCKASQDVSTAVAWYQQKPGQSPKLLIYSASYRYNGVPDRFTGSGSGTDFTFTISSVQAEDLAVYYCQQHYNTPYTFGGGTKLEIKR
notes: also called Chimeric antibody CL25
In the case of B1, the Kd [1] is reported as < 0.394 nM, the koff [1] is reported as 0.000394 s⁻¹ and the kon [1] is reported as > 1e+06 M⁻¹ s⁻¹. The Kd [2] was < 0.658 nM, the koff [2] was 0.000658 s⁻¹ and the kon [2] was > 1e+06 M⁻¹ s⁻¹. For the same binder, the binding result [3] was “no binding”, the Kd [4] was 0.381 nM and the koff [4] was 0.000344 s⁻¹. It also gave a kon [4] of 903000 M⁻¹ s⁻¹, a Kd [5] of 0.529 nM and a koff [5] of 0.000495 s⁻¹. The kon [5] was 936000 M⁻¹ s⁻¹ and the binding result [6] was “no binding”.
